This passage reports Km, kcat and kcat/Km results from paper PMC8207647.

Some test systems named below: O=C(O)c1ccc(CO)o1; O=Cc1ccc(CO)o1; COc1ccc(CO)cc1OC; O=Cc1ccc(C=O)o1.
What all share (experiment): purified protein
Conditions in all cases: O2 co-substrate, pH 7.5 sodium phosphate 50 mM, 35 °C

As a reminder, the Km is the substrate concentration at which the rate is half of its maximum. What is called kcat is the maximal rate divided by the concentration of active sites. What is called kcat/Km is the turnover number divided by the Michaelis constant.

As to “FoxAAO (Fusarium oxysporum f. sp. lycopersici 4287)”, the Km is 3.1 ± 0.31 mM with O=C(O)c1ccc(CO)o1, 17 ± 4.9 mM in the data set on O=Cc1ccc(CO)o1, 3.0 ± 0.24 mM in the data set on COc1ccc(CO)cc1OC and 3.7 ± 1.0 mM in the data set on O=Cc1ccc(C=O)o1. For the same substance, the values for the kcat with O=C(O)c1ccc(CO)o1, in the data set on COc1ccc(CO)cc1OC and in the data set with O=Cc1ccc(C=O)o1 were 5.2 ± 0.14 s⁻¹, 25 ± 1.2 s⁻¹ and 1.4 ± 0.13 s⁻¹, respectively. The values for the kcat/Km in the data set on O=C(O)c1ccc(CO)o1, with COc1ccc(CO)cc1OC and with O=Cc1ccc(C=O)o1 were 1700 M⁻¹ s⁻¹, 8300 M⁻¹ s⁻¹ and 380 M⁻¹ s⁻¹, respectively.
